The target in one assay is human ACVR2A (human, UniProt P27037 20-135, limits assumed). In words: ELISA. The procedure, abridged:
(§1)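 Monoclonal antibodies were first applied to human or mouse ACVR2A, alongside biotinylated goat anti-human kappa light chain (positive control) and human Fc (negative control); binding was then determined by ELISA.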

Another assay has as its target mouse ACVR2A (mouse, UniProt P27038 20-135, limits assumed). In words: ELISA. The procedure, abridged:
as §1

The target in assay [1] is T1, biotinylated goat anti-human kappa light chain.
T1 construct: Positive control of the ELISA
In words: ELISA; positive control. The procedure, abridged:
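ELISA measured binding of ACVR2A-specific monoclonal antibodies to human and mouse ACVR2A. Biotinylated goat anti-human kappa light chain served as positive control and human Fc as negative control.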

Drawing on patent US20210380703A1 (RIGEL PHARMACEUTICALS, published 2021), this text covers optical density for 18 molecules.
Also: test concentration or dose not given here.

human ACVR2A, sequence (P27037 20-135 limits assumed): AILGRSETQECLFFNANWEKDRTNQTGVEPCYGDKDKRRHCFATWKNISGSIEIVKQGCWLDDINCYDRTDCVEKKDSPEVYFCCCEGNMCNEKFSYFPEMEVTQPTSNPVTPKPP
mouse ACVR2A, sequence (P27038 20-135 limits assumed): as the sequence (P27037 20-135 limits assumed) above, with K20R, V73I counted along it

B1: 374_H07 (antibody, V domains shown)
VH: EVQLLESGGGLVQPGGSLRLSCAASGFTFDSYGMNWVRQAPGKGLEWVANINYNGGYTGYADSVKGRFTISRDNSKNTLYLQMNSLRAEDTAVYYCARSANWHDTALDYWGQGTLVTVSS
VL: DIQMTQSPSSLSASVGDRVTITCRASQSILTYLNWYQQKPGKAPKLLIYAATSRASGVPSRFSGSGSGTDFTLTISSLQPEDFATYYCQQSYETPLTFGGGTKVEIK
notes: VH/VL only
B1: the optical density amounted to 3.24 OD with human ACVR2A, 3.25 OD with mouse ACVR2A and 2.97 OD in assay [1].

B2: 375_D08 (antibody, V domains shown)
VH: EVQLLESGGGLVQPGGSLRLSCAASGFTFSDYGMNWVRQAPGKGLEWVSGINYNSGYKGYADSVKGRFTISRDNSKNTLYLQMNSLRAEDTAVYYCARSANWHDTALDYWGQGTLVTVSS
VL: DIQMTQSPSSLSASVGDRVTITCRASQSIITYLNWYQQKPGKAPKLLIYAATSRASGVPSRFSGSGSGTDFTLTISSLQPEDFATYYCQQSYSTPLTFGGGTKVEIK
notes: VH/VL only
As to B2, the optical density came to 3.29 OD with human ACVR2A, 3.4 OD in the assay with mouse ACVR2A and 3.3 OD in assay [1].

B3: 376_A04 (antibody, V domains shown)
VH: EVQLLESGGGLVQPGGSLRLSCAASGFTFDSYSMNWVRQAPGKGLEWVSNINYNGGYTSYADSVKGRFTISRDNSKNTLYLQMNSLRAEDTAVYYCARSANWHDTALDYWGQGTLVTVSS
VL: DIQMTQSPSSLSASVGDRVTITCRASQSIVTYLNWYQQKPGKAPKLVIYAATSRASGVPSRFSGSGSGTDFTLTISSLQPEDFATYYCQQSYDSPLTFGGGTKVEIK
notes: VH/VL only
For B3, the optical density amounted to 3.59 OD with human ACVR2A, 3.58 OD with mouse ACVR2A and 3.12 OD in assay [1].

B4: 375_E07 (antibody, V domains shown)
VH: EVQLLESGGGLVQPGGSLRLSCAASGFTFSDYSMNWVRQAPGKGLEWVAGINYNSGYKGYADSVKGRFTISRDNSKNTLYLQMNSLRAEDTAVYYCARSANWHDTALDYWGQGTLVTVSS
VL: DIQMTQSPSSLSASVGDRVTITCRASQSIVTYLNWYQQKPGKAPKLLIYVVTNRESGVPSRFSGSGSGTDFTLTISSLQPEDFATYYCQQSYETPLTFGGGTKVEIK
notes: VH/VL only
As for B4, the optical density in the assay with human ACVR2A is 3.68 OD; in the assay with mouse ACVR2A, 3.81 OD; in assay [1], 3.06 OD.

B5: 375_C12 (antibody, V domains shown)
VH: EVQLLESGGGLVQPGGSLRLSCAASGFTFSSYSMNWVRQAPGKGLEWVANINYNGGYTGYADSVKGRFTISRDNSKNTLYLQMNSLRAEDTAVYYCARSATWHDTHLDYWGQGTLVTVSS
VL: DIQMTQSPSSLSASVGDRVTITCRASQSILTYLNWYQQKPGKAPKLLIYAATSRASGVPSRFSGSGSGTDFTLTISSLQPEDFATYYCQQSYDLPLTFGGGTKVEIK
notes: VH/VL only
For B5, the optical density was determined as 3.66 OD in the assay with human ACVR2A, 3.33 OD with mouse ACVR2A and 3.27 OD in assay [1].

B6: 375_E01 (antibody, V domains shown)
VH: EVQLLESGGGLVQPGGSLRLSCAASGFTFSSYSMNWVRQAPGKGLEWVSGINYNSGYKSYADSVKGRFTISRDNSKNTLYLQMNSLRAEDTAVYYCARSANWHDTALDYWGQGTLVTVSS
VL: DIQMTQSPSSLSASVGDRVTITCRASQSILTYLNWYQQKPGKAPKLVIYAATSRASGVPSRFSGSGSGTDFTLTISSLQPEDFATYYCQQSDDSPLTFGGGTKVEIK
notes: VH/VL only
Consider B6, for which the results for the optical density (with human ACVR2A; in the assay with mouse ACVR2A; in assay [1]) were 3.16 OD, 3.63 OD and 3.11 OD, respectively.

B7: 375_B04 (antibody, V domains shown)
VH: EVQLLESGGGLVQPGGSLRLSCAASGFTFDSYSMNWVRQAPGKGLEWVANINYNGGYTGYADSVKGRFTISRDNSKNTLYLQMNSLRAEDTAVYYCARSATWHDTHLDYWGQGTLVTVSS
VL: DIQMTQSPSSLSASVGDRVTITCRASQSILTYLNWYQQKPGKAPKLLIYAATSRASGVPSRFSGSGSGTDFTLTISSLQPEDFATYYCQQSYDNPLTFGGGTKVEIK
notes: VH/VL only
With B7, the figures for the optical density (in the assay with human ACVR2A; with mouse ACVR2A; in assay [1]) were 3.69 OD, 3.73 OD and 3.26 OD, respectively.

B8: 375_A05 (antibody, V domains shown)
VH: EVQLLESGGGLVQPGGSLRLSCAASGFTFSSYGMNWVRQAPGKGLEWVANINYNGGYKGYADSVKGRFTISRDNSKNTLYLQMNSLRAEDTAVYYCARSANWHDTALDYWGQGTLVTVSS
VL: DIQMTQSPSSLSASVGDRVTITCRASQSILSYLNWYQQKPGKAPKLLIYAATSRASGVPSRFSGSGSGTDFTLTISSLQPEDFATYYCQQSYDLPLTFGGGTKVEIK
notes: VH/VL only
With B8, the values for the optical density (with human ACVR2A; with mouse ACVR2A; in assay [1]) were 3.72 OD, 3.69 OD and 3.12 OD, respectively.

B9: 375_A02 (antibody, V domains shown)
VH: EVQLLESGGGLVQPGGSLRLSCAASGFTFSSYSMNWVRQAPGKGLEWVAGINYNSGYTSYADSVKGRFTISRDNSKNTLYLQMNSLRAEDTAVYYCARSATWHDTHLDYWGQGTLVTVSS
VL: not shown
notes: VH/VL only
On to B9, for which the optical density in the assay with human ACVR2A was determined as 2.98 OD; in the assay with mouse ACVR2A, 3.18 OD; in assay [1], 3.07 OD.

B10: 375_H12 (antibody, V domains shown)
VH: EVQLLESGGGLVQPGGSLRLSCAASGFTFSSYGMNWVRQAPGKGLEWVAGINYNGGYKGYADSVKGRFTISRDNSKNTLYLQMNSLRAEDTAVYYCARSANWHDTALDYWGQGTLVTVSS
VL: DIQMTQSPSSLSASVGDRVTITCRASQSILTYLNWYQQKPGKAPKLLIYYVTNRQSGVPSRFSGSGSGTDFTLTISSLQPEDFATYYCQQSYSIPLTFGGGTKVEIK
notes: VH/VL only
As to B10, the results for the optical density (in the assay with human ACVR2A; in the assay with mouse ACVR2A; in assay [1]) were 3.26 OD, 3.1 OD and 3.26 OD, respectively.

B11: 375_D12 (antibody, V domains shown)
VH: EVQLLESGGGLVQPGGSLRLSCAASGFTFDSYGMNWVRQAPGKGLEWVSSINYNSGYTSYADSVKGRFTISRDNSKNTLYLQMNSLRAEDTAVYYCARSANWHDTALDYWGQGTLVTVSS
VL: DIQMTQSPSSLSASVGDRVTITCRASQSILTYVNWYQQKPGKAPKLVIYAATSRASGVPSRFSGSGSGTDFTLTISSLQPEDFATYYCQQSYETPLTFGGGTKVEIK
notes: VH/VL only
Take B11: the figures for the optical density (with human ACVR2A; in the assay with mouse ACVR2A; in assay [1]) were 3.24 OD, 3.16 OD and 3.23 OD, respectively.

B12: 375_D05 (antibody, V domains shown)
VH: EVQLLESGGGLVQPGGSLRLSCAASGFTFSSYSMNWVRQAPGKGLEWVASINYNSGYTSYADSVKGRFTISRDNSKNTLYLQMNSLRAEDTAVYYCARSANWHDTHLDYWGQGTLVTVSS
VL: DIQMTQSPSSLSASVGDRVTITCRASQSIVSYLNWYQQKPGKAPKLLIYAATSLHSGVPSRFSGSGSGTDFTLTISSLQPEDFATYYCQQSYDTPLTFGGGTKVEIK
notes: VH/VL only
In the case of B12, the values for the optical density (with human ACVR2A; with mouse ACVR2A; in assay [1]) were 3.46 OD, 3.61 OD and 3.21 OD, respectively.

B13: 375_D07 (antibody, V domains shown)
VH: EVQLLESGGGLVQPGGSLRLSCAASGFTFSSYGMNWVRQAPGKGLEWVANINYNSGYTGYADSVKGRFTISRDNSKNTLYLQMNSLRAEDTAVYYCARSANWHDTALDYWGQGTLVTVSS
VL: DIQMTQSPSSLSASVGDRVTITCRASQSIITYLNWYQQKPGKAPKLLIYAATSRASGVPSRFSGSGSGTDFTLTISSLQPEDFATYYCQQSYDTPLTFGGGTKVEIK
notes: VH/VL only
With B13, the results for the optical density (in the assay with human ACVR2A; with mouse ACVR2A; in assay [1]) were 3.56 OD, 3.63 OD and 3.25 OD, respectively.

B14: 374_H08 (antibody, V domains shown)
VH: EVQLLESGGGLVQPGGSLRLSCAASGFTFDSYSMNWVRQAPGKGLEWVSGINYNGGYTGYADSVKGRFTISRDNSKNTLYLQMNSLRAEDTAVYYCARSATWHDTHLDYWGQGTLVTVSS
VL: DIQMTQSPSSLSASVGDRVTITCRASQSILSYLNWYQQKPGKAPKLLIYAATSLHSGVPSRFSGSGSGTDFTLTISSLQPEDFATYYCQQSYENPLTFGGGTKVEIK
notes: VH/VL only
Consider B14, for which the optical density in the assay with human ACVR2A worked out at 3.31 OD; with mouse ACVR2A, 3.27 OD; in assay [1] it was 3.09 OD.

B15: 375_A06 (antibody, V domains shown)
VH: EVQLLESGGGLVQPGGSLRLSCAASGFTFSSYSMNWVRQAPGKGLEWVAGINYNSGYKGYADSVKGRFTISRDNSKNTLYLQMNSLRAEDTAVYYCARSATWHDTHLDYWGQGTLVTVSS
VL: DIQMTQSPSSLSASVGDRVTITCRASQSILTYVNWYQQKPGKAPKLLIYAASSLQSGVPSRFSGSGSGTDFTLTISSLQPEDFATYYCQQSYSTPLTFGGGTKVEIK
notes: VH/VL only
Consider B15, for which the optical density with human ACVR2A worked out at 3.65 OD; with mouse ACVR2A, 3.71 OD; in assay [1], 3.11 OD.

B16: 375_G07 (antibody, V domains shown)
VH: EVQLLESGGGLVQPGGSLRLSCAASGFTFDSYSMNWVRQAPGKGLEWVAGINYNSGYTSYADSVKGRFTISRDNSKNTLYLQMNSLRAEDTAVYYCARSATWHDTHLDYWGQGTLVTVSS
VL: DIQMTQSPSSLSASVGDRVTITCRASQSILSYLNWYQQKPGKAPKLVIYAATSLASGVPSRFSGSGSGTDFTLTISSLQPEDFATYYCQQSYDLPLTFGGGTKVEIK
notes: VH/VL only
With B16, the optical density worked out at 3.63 OD with human ACVR2A, 3.67 OD in the assay with mouse ACVR2A and 3.2 OD in assay [1].

B17: 374_H09 (antibody, V domains shown)
VH: EVQLLESGGGLVQPGGSLRLSCAASGFTFSSYSMNWVRQAPGKGLEWVANINYNSGYKSYADSVKGRFTISRDNSKNTLYLQMNSLRAEDTAVYYCARSANWHDTALDYWGQGTLVTVSS
VL: DIQMTQSPSSLSASVGDRVTITCRASQSILSYLNWYQQKPGKAPKLVIYAVTSLASGVPSRFSGSGSGTDFTLTISSLQPEDFATYYCQQSYDLPLTFGGGTKVEIK
notes: VH/VL only
Regarding B17, the optical density was found to be 3.25 OD with human ACVR2A, 3.26 OD in the assay with mouse ACVR2A and 3.04 OD in assay [1].

B18: 375_C06 (antibody, V domains shown)
VH: EVQLLESGGGLVQPGGSLRLSCAASGFTFDDYGMHWVRQAPGKGLEWVASINYNSGYTSYADSVKGRFTISRDNSKNTLYLQMNSLRAEDTAVYYCARSANWHDTALDYWGQGTLVTVSS
VL: DIQMTQSPSSLSASVGDRVTITCRASQSILTYVNWYQQKPGKAPKLVIYATTSRASGVPSRFSGSGSGTDFTLTISSLQPEDFATYYCQQSYDSPLTFGGGTKVEIK
notes: VH/VL only
With B18, the optical density is 2.65 OD with human ACVR2A, 3.21 OD in the assay with mouse ACVR2A and 3.29 OD in assay [1].
